Assay results published in patent US20140206847A1 (PANASONIC, published 2014).

Biological target: T1, Troponin I derived from human myocardium (human, UniProt P19429 2-210)
T1 construct: Bought protein, fixed on a CM5 chip at approximately 500 RU; also called Troponin I (purchased from Funakoshi)
Test: SPR, Biacore T100; troponin I fixed on CM5 chip, measured similarly to the mutant protein; column head 'Association Rate Ka(M^-1)'
Description: Using an intermolecular interaction analyzer Biacore T100 (purchased from GE health care company), the association rate of the mutant protein was measured in accordance with the manual attached to the intermolecular interaction analyzer Biacore T100.
More particularly, Troponin I (purchased from Funakoshi) derived from human myocardium having approximately 500 RU (Resonance Unit) was fixed on a CM5 chip (purchased from GE health care company). This CM5 chip was set in the Biacore T100. Then, aqueous solutions (concentration: 100 nM, 50 nM, 25 nM, 12.5 nM, and 6.25 nM, volume: 150 microliters) containing the purified mutant protein was flowed through the Biacore T100 to measure the association rate of the mutant protein.

T1 sequence (P19429 2-210 limits assumed): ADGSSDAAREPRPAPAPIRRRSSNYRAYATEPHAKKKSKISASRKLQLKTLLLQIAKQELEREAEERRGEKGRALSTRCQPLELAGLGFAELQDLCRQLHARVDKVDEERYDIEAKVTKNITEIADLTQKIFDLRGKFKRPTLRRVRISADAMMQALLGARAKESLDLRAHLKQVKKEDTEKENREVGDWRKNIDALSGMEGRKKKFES

B1: First mutant scFv antibody fragment (scFv)
scFv: DVVLTQSPLTLSVTIGQPASISCKSSQSLLDSDGKTYLNWLLQRPGQSPKRLIYLVSKLDSGVPDRFTGSGSGTDFTLKISRVEAEDLGVYYCWQGTHFPLTFGAGTKLEIKRGGGGSGGGGSGGGGSQLQLQQSGAELVRSGASVKLSCTASGFNIKDYYMNWVKQRPEQGLEWIGWIDPANGDTAYAPRFQVKADMTADKDSDTAYLQLSSLTSEDTAVYYCNADLPMDQWGQGTSVTVSSAAALESFNRNEC
notes: also called first mutant scFv antibody fragment 51; mutant first scFv antibody fragment
Question: How did the Ka turn out when B1 was run?
Answer: 5.11e+09 M⁻¹
